# From paper PMC4132731, “Crystal structure of RNase H3–substrate complex reveals parallel evolution of RNA/DNA hybrid recognition”
# T1: Ta-RNase H3 D78N (Thermovibrio ammonificans, UniProt E8T217 1-270, D78N)
# T1 sequence: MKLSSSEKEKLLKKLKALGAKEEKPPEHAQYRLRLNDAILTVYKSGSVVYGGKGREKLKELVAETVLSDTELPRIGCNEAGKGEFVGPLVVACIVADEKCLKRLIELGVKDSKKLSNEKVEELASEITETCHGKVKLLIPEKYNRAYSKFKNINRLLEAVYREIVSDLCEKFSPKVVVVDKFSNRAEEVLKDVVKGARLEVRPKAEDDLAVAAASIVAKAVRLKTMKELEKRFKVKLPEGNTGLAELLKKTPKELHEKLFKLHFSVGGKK
# Biological target: T1, Ta-RNase H3 D78N
# Assay: X-ray crystallography (2.1 A); Mg2+ (metal ion A only); sulfate; EMSA: 10% native TAE polyacrylamide gel, binding buffer not given in the material; crystals: 0.2 M ammonium sulfate, 0.1 M BisTris pH 5.5, 25% PEG 3350, 10 mM spermine tetrahydrochloride, protein:substrate 1:1.2
# Details: protein: recombinant; tags: N-terminal His-SUMO tag removed with SENP; extra N-terminal Ser0 before Met1 (cloning artifact); blunt
binder,measurement,value
19-bp RNA/DNA hybrid (DNA:RNA) RNA: GAGUGCGACACCUGAUUCC DNA: GGAATCAGGTGTCGCACTC,binding result,binds
